Measured values taken from the supplement of paper PMC10724198.
± gives the standard deviation of the averaged measurements.

Test system: Saccharomyces cerevisiae
Assay: protein stability index of tFT-peptide fusion (C-terminal peptide) (PSI (0-1 scale)); higher = more stable (slower turnover)
Conditions: temperature: 30 C
Experimental: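 MPS profiling in S. cerevisiae of the yeast C-terminome library: the last 12 aa of each annotated ORF are fused to the C-terminus of a sfGFP-mCherry timer, after a GGGS linker. Cells are FACS-sorted into 8 mCherry/sfGFP bins and deep-sequenced. PSI runs from 0 (unstable) to 1 (stable); wild type and das1Δ backgrounds, two technical replicates each.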

[1] = genetic background: das1 deletion

Sequence	protein stability index [1]	protein stability index (genetic background: wild type)
GQPPAPFRLRSD [SDS3 C-terminal 12 aa]	0.7109 ± 0.00038	0.709 ± 0.049
AYQITKRGIETA [RAD57 C-terminal 12 aa]	0.675 ± 0.061	0.6951 ± 0.004
KDNTVDIYDVNG [TGS1 C-terminal 12 aa]	0.687 ± 0.023	0.682 ± 0.013
QSFETVFAGQKP [MET17 C-terminal 12 aa]	0.7008 ± 0.0036	0.702 ± 0.027
DAKNANEKNKTY [PIS1 C-terminal 12 aa]	0.687 ± 0.035	0.42 ± 0.033
NNASEDDRGIRV [STB2 C-terminal 12 aa]	0.6973 ± 0.0012	0.685 ± 0.089
RDHDLKDCGDIF [OSH2 C-terminal 12 aa]	0.7104 ± 0.0011	0.698 ± 0.039
KKGLLHKLKKKL [IST2 C-terminal 12 aa]	0.7257 ± 0.0041	0.668 ± 0.045
AVKYLYRQIVRN [EFM2 C-terminal 12 aa]	0.6832 ± 0.0033	0.6213 ± 0.0041
KVIRGKGFKLPK [ERD2 C-terminal 12 aa]	0.675 ± 0.0093	0.667 ± 0.036
VFSKKEPFPHSK [YJR084W C-terminal 12 aa]	0.721 ± 0.019	0.771 ± 0.059
SNYGGNSTWGGH [SPT5 C-terminal 12 aa]	0.732 ± 0.11	0.673 ± 0.16
IIQDNISPRLVV [RRP46 C-terminal 12 aa]	0.661 ± 0.034	0.665 ± 0.017
ERNPTQRPQRRY [RPS10A C-terminal 12 aa]	0.728 ± 0.036	0.679 ± 0.036
ELLRIHNSHLRN [FOL3 C-terminal 12 aa]	0.715 ± 0.031	0.709 ± 0.042
WLRKWLSTFVHQ [YNL018C C-terminal 12 aa]	0.732 ± 0.042	0.23 ± 0.022
IMSTASAQFVGN [YIR018C-A C-terminal 12 aa]	0.687 ± 0.011	0.664 ± 0.0089

Sequence	protein stability index [1]	protein stability index (genetic background: wild type)
EGSAFKKQKHYR [NOP9 C-terminal 12 aa]	0.703 ± 0.0097	0.701 ± 0.012
MKKLQNKKSSAV [CAB5 C-terminal 12 aa]	0.695 ± 0.05	0.677 ± 0.021
IVFTSVGAFNIL [YMR172C-A C-terminal 12 aa]	0.717 ± 0.016	0.7349 ± 0.0029
VSLDNLPGVEKK [SUA7 C-terminal 12 aa]	0.682 ± 0.022	0.683 ± 0.014
NFVSQYRNDEIY [YOR381W-A C-terminal 12 aa]	0.688 ± 0.032	0.659 ± 0.023
ICFREFFDRVET [YJL077W-B C-terminal 12 aa]	0.714 ± 0.056	0.6732 ± 0.0058
LTILRISELSMN [MRPL49 C-terminal 12 aa]	0.7053 ± 0.0034	0.354 ± 0.0057
RCWVQAVFDVPQ [ABP140 C-terminal 12 aa]	0.725 ± 0.011	0.691 ± 0.046
LSQIVDIWNKDI [MNT2 C-terminal 12 aa]	0.741 ± 0.03	0.79 ± 0.044
GSPNSLLLNIGR [PHB1 C-terminal 12 aa]	0.698 ± 0.015	0.719 ± 0.016
ASSSDRPTVAAT [RRT5 C-terminal 12 aa]	0.6995 ± 0.0066	0.681 ± 0.021
IRLKRRDFMKNL [RRT12 C-terminal 12 aa]	0.689 ± 0.0069	0.382 ± 0.0049
RKSTRSDNPHEA [CBF1 C-terminal 12 aa]	0.6989 ± 0.0016	0.687 ± 0.017
GFRLRFWKSLGF [CYT2 C-terminal 12 aa]	0.706 ± 0.029	0.716 ± 0.023
AIMAVACNVIFS [AGA1 C-terminal 12 aa]	0.292 ± 0.024	0.315 ± 0.005
EDLDSDLFSEVE [SSF1 C-terminal 12 aa]	0.682 ± 0.02	0.732 ± 0.027
DFFYFFQGPFVL [YOR072W-B C-terminal 12 aa]	0.721 ± 0.013	0.731 ± 0.044
